In the assay the target is T1, beta-catenin (Homo sapiens, UniProt P35222).
T1 construct: made in house; host or cells: E. coli BL21 (DE3) pLysS
T1 sequence (P35222 134-665): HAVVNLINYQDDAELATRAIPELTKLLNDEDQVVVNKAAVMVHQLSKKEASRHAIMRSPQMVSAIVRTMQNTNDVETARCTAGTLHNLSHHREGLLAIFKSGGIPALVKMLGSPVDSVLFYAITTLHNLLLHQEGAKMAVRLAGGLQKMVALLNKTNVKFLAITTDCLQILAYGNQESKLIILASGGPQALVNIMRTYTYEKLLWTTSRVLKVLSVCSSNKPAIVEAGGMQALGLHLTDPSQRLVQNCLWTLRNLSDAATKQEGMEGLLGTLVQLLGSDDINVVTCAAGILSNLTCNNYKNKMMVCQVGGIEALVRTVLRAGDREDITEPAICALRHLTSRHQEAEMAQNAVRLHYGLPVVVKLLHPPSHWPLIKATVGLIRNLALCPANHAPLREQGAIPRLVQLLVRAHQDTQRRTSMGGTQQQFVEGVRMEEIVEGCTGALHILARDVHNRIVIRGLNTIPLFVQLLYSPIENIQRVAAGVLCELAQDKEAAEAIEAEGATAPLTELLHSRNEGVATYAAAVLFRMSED
Kind of assay: Phage Library Screening with NGS, beta-catenin. The format is binding. To be noted: for Target Concentration 10 (phage screen NGS readout): beta-catenin target concentration 10; for Target Concentration 10 (phage screen NGS readout) / Target Concentration 30 (phage screen NGS readout) / Target Concentration 100 (phage screen NGS readout) / Target Concentration 300 (phage screen NGS readout): no competitor; for Target Concentration 30 (phage screen NGS readout): beta-catenin target concentration 30; for Target Concentration 100 (phage screen NGS readout): beta-catenin target concentration 100; for Target Concentration 300 (phage screen NGS readout): beta-catenin target concentration 300; for Target Concentration 1000 (phage screen NGS readout): beta-catenin target concentration 1000.

Ends that are not written are not given here.

In the case of DPAILDCSIAAIDCAYS, the “Target Concentration 10 (phage screen NGS readout)” value was found to be 0, the “Target Concentration 30 (phage screen NGS readout)” value was found to be 0, the “Target Concentration 100 (phage screen NGS readout)” value turned out to be 16 and the “Target Concentration 300 (phage screen NGS readout)” value was 42. Also, the “Target Concentration BLANK (phage screen NGS readout)” value (“Target Concentration BLANK” for short) (first column) is recorded as 0. The “Target Concentration BLANK” value (fourth column) is on record as 0. The “Target Concentration BLANK” value (second column) was 0. Further, the “Target Concentration BLANK” value (third column) came out at 0. Moreover, the “Target Concentration 1000 (phage screen NGS readout)” value (first 1000 column) was found to be 39. Further, where the note is “second 1000 column”, the “Target Concentration 1000 (phage screen NGS readout)” value came to 29.

As for “DPADYECVIAAQVCQHF (not fully specified; cysteine pairing not given here)”, the “Target Concentration 10 (phage screen NGS readout)” value was determined as 0, the “Target Concentration 30 (phage screen NGS readout)” value came out at 1, the “Target Concentration 100 (phage screen NGS readout)” value turned out to be 11 and the “Target Concentration 300 (phage screen NGS readout)” value is 18. Besides, the “Target Concentration BLANK” value (first column) is recorded as 0. Moreover, the “Target Concentration BLANK” value (fourth column) was 0. Moreover, the “Target Concentration BLANK” value (second column) stood at 4. Moreover, the “Target Concentration BLANK” value (third column) is recorded as 0. In addition, the “Target Concentration 1000 (phage screen NGS readout)” value (first 1000 column) is recorded as 19. The “Target Concentration 1000 (phage screen NGS readout)” value (second 1000 column) stood at 14.

As to DPARMTCYEAAFRCQYY, the “Target Concentration 10 (phage screen NGS readout)” value is recorded as 0, the “Target Concentration 30 (phage screen NGS readout)” value is on record as 2, the “Target Concentration 100 (phage screen NGS readout)” value is listed as 2 and the “Target Concentration 300 (phage screen NGS readout)” value worked out at 3. Further, the “Target Concentration BLANK” value (first column) is listed as 0. Further, under “fourth column”, the “Target Concentration BLANK” value came to 0. For the same sequence, the “Target Concentration BLANK” value (second column) was 0. Under “third column”, the “Target Concentration BLANK” value is reported as 0. In addition, the “Target Concentration 1000 (phage screen NGS readout)” value (first 1000 column) is 11. Besides, the “Target Concentration 1000 (phage screen NGS readout)” value (second 1000 column) turned out to be 9.

For the sequence DPAESDCILAAYICYVE, the “Target Concentration 10 (phage screen NGS readout)” value amounted to 0, the “Target Concentration 30 (phage screen NGS readout)” value stood at 1, the “Target Concentration 100 (phage screen NGS readout)” value was 22 and the “Target Concentration 300 (phage screen NGS readout)” value was 51. In addition, the “Target Concentration BLANK” value (first column) was determined as 0. Also, the “Target Concentration BLANK” value (fourth column) was determined as 0. For the same sequence, under “second column”, the “Target Concentration BLANK” value is 2. Further, the “Target Concentration BLANK” value (third column) is recorded as 0. In addition, the “Target Concentration 1000 (phage screen NGS readout)” value (first 1000 column) worked out at 69. Also, the “Target Concentration 1000 (phage screen NGS readout)” value (second 1000 column) came to 40.

For the sequence DPAQNICEWAALHCDLI, the “Target Concentration 10 (phage screen NGS readout)” value was 0, the “Target Concentration 30 (phage screen NGS readout)” value amounted to 13, the “Target Concentration 100 (phage screen NGS readout)” value turned out to be 37 and the “Target Concentration 300 (phage screen NGS readout)” value amounted to 109. The “Target Concentration BLANK” value (first column) is 0. Moreover, the “Target Concentration BLANK” value (fourth column) is recorded as 0. Also, where the note is “second column”, the “Target Concentration BLANK” value came to 1. Moreover, for the setting “third column”, the “Target Concentration BLANK” value is reported as 0. Also, the “Target Concentration 1000 (phage screen NGS readout)” value (first 1000 column) amounted to 177. For the same sequence, the “Target Concentration 1000 (phage screen NGS readout)” value (second 1000 column) worked out at 82.

The values above are taken from patent publication US20240376151A1, “STAPLED PEPTIDES AND METHODS THEREOF” (FOG PHARMACEUTICALS, INC., priority 2022, published 2024).
